{
  "source": "paper PMC7213983",
  "key": {"chicken MRP126 (chicken)": {"target": "chicken MRP126 (chicken) (UniProt P28318)", "assay": "SEC-MALS; Superose 12 10/300 GL; samples at 0.5-2 mg/ml in tris buffer (25 mM tris, 100 mM NaCl, pH 7.4) + 0.5 mM CaCl2; flow 0.2 ml/min"}, "human S100A9 (human)": {"target": "human S100A9 (human) (UniProt P06702)", "assay": "SEC-MALS; Superose 12 10/300 GL; samples at 0.5-2 mg/ml in tris buffer (25 mM tris, 100 mM NaCl, pH 7.4) + 0.5 mM CaCl2; flow 0.2 ml/min"}, "[1]": {"target": "human S100A9 M63F (human) (UniProt P06702)", "assay": "SEC-MALS; Superose 12 10/300 GL; samples at 0.5-2 mg/ml in tris buffer (25 mM tris, 100 mM NaCl, pH 7.4) + 0.5 mM CaCl2; flow 0.2 ml/min"}, "human S100A12 (human)": {"target": "human S100A12 (human) (UniProt P80511)", "assay": "SEC-MALS; Superose 12 10/300 GL; samples at 0.5-2 mg/ml in tris buffer (25 mM tris, 100 mM NaCl, pH 7.4) + 0.5 mM CaCl2; flow 0.2 ml/min"}, "[2]": {"target": "opossum Toll-like receptor 4 (opossum)"}},
  "data": [
    {"substance": "chicken MRP126 (from UniProt P28318 1-119) (natural protein)", "values": [
      {"measurement": "stoichiometry N", "setting": "chicken MRP126 (chicken)", "value": 2}
    ]},
    {"substance": "human S100A9 (from UniProt P06702 1-114) (natural protein)", "values": [
      {"measurement": "stoichiometry N", "setting": "human S100A9 (human)", "value": 2}
    ]},
    {"substance": "human S100A9 M63F (from UniProt P06702 1-114) (natural protein)", "values": [
      {"measurement": "stoichiometry N", "setting": "[1]", "value": 2}
    ]},
    {"substance": "human S100A12 (from UniProt P80511 1-92) (natural protein)", "values": [
      {"measurement": "stoichiometry N", "setting": "human S100A12 (human)", "value": 2}
    ]},
    {"substance": "opossum S100A9 (natural protein)", "values": [
      {"measurement": "NF-κB luciferase reporter in HEK293T cells transfected with opossum TLR4, MD-2 and CD14; activity against that of human A9 (fold of human A9 activity)", "setting": "[2]", "value": 0.5}
    ]}
  ]
}
